Test results: the supplement of paper PMC9170038

Tested on: MS2 coat protein
Test: apparent KD of MS2 coat protein; designed switch direction (-1 OFF switch, 1 ON switch): -1; higher = weaker reporter binding
Method in brief: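 Normalised cluster fluorescence was curve-fitted, and each design's median over clusters is its apparent KD. Before this, SNAP-549-labelled MS2 coat protein was titrated from 0.7 or 1.5 nM, doubling to 3 µM, over RNA switches transcribed on Illumina chips by stalled E. coli RNA polymerase. Titrations had no input, 200 uM small-molecule ligand, or an oligonucleotide input, and steps lasted 0.8–1.5 h (lowest) to 10–20 min (highest).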

[1] = input ligand: microRNA oligo, concentration not stated
[2] = Eterna round: R95, input ligand: microRNA oligo, concentration not stated

## GUACUGAAGCAUAGCUUUAGUCGUACAUGAGGAUCACCCAUGUAGGAUAUGGUAGGCAUAGCUUACUAGAAGGAUAGAGUGAUC [Mat - Exclusion NG 3 - Mod of JL - D72] (Eterna round: R96, puzzle: Exclusion NG 3)
Input ligand: FMN 200 uM
  apparent KD of MS2 coat protein: 440 nM
[1]
  apparent KD of MS2 coat protein: 71.6 nM
Input ligand: none
  apparent KD of MS2 coat protein: 137 nM

## GUACUGAAGCUUUGCUUUAAUCGUACAUGAGGAUCACCCAUGUAGGAUAUGGUAGGCUUUGCUUACCAGAAGGACAGAGUGAUC [JL EXNG3 1.24] (Eterna round: R96, puzzle: Exclusion NG 3)
Input ligand: FMN 200 uM
  apparent KD of MS2 coat protein: 217 nM
[1]
  apparent KD of MS2 coat protein: 124 nM
Input ligand: none
  apparent KD of MS2 coat protein: 136 nM

## GUACUGACAGGAUAUACAUGAGGAUCACCCAUGUGCCCUUAUAGAUGCAAAGCAUCUAGUAGAAGGGUCUGUAC [Omei Ex3 Model Bachelor's Dilema v24] (Eterna round: R97, puzzle: Exclusion 3)
Input ligand: FMN 200 uM
  apparent KD of MS2 coat protein: 32.8 nM
Input ligand: none
  apparent KD of MS2 coat protein: 26.9 nM

## GUAGAGACAGGAUAUACAUGAGGAUCACCCAUGUGAGGAGGAAAAGAGAGGAGAAAGAGUAGAAGGGUCGAAAG [JR_Exclu3_Sub030] (puzzle: Exclusion 3)
Eterna round: R95, input ligand: FMN 200 uM
  apparent KD of MS2 coat protein: 41.4 nM
[2]
  apparent KD of MS2 coat protein: 35.7 nM
Eterna round: R95, input ligand: none
  apparent KD of MS2 coat protein: 43 nM

## GUAGAGUCAGGAUAUACAAGAUCGAAAGAUCAAAGGUCCAUACAUGAGGAUCACCCAUGUAGAAGGGACUCUAC [Eli x2 4.09] (Eterna round: R97, puzzle: Exclusion 2)
Input ligand: FMN 200 uM
  apparent KD of MS2 coat protein: 36.4 nM
Input ligand: none
  apparent KD of MS2 coat protein: 24.5 nM

## GUAGAGUCAGGAUAUACGAGAUCGAAAGAUCGGCGAUCCAAACAUGAGGAUCACCCAUGUAGAAGGGACUCUAC [Eli x2 4.004] (Eterna round: R97, puzzle: Exclusion 2)
Input ligand: FMN 200 uM
  apparent KD of MS2 coat protein: 579 nM
Input ligand: none
  apparent KD of MS2 coat protein: 41 nM

## GUAGAGUCAGGAUAUACGAGAUCGAAAGAUCGGCGGUCUGUACAUGAGGAUCACCCAUGUAGAAGGGACUCUAC [ChP 11-04-2015 #6] (puzzle: Exclusion 2)
[2]
  apparent KD of MS2 coat protein: 15.3 nM

## GUAGAGUCAGGAUAUACGCGAUCGAAAGAUCGGUGGUCCUUACAUGAGGAUCACCCAUGUAGAAGGGACUCUAC [Omei mod 13 to Eli's favorate candidate (ch.parushev)] (Eterna round: R97, puzzle: Exclusion 2)
Input ligand: FMN 200 uM
  apparent KD of MS2 coat protein: 65.9 nM
Input ligand: none
  apparent KD of MS2 coat protein: 580 nM

## GUAGAGUGAGGAUAUACAAGAUCGAUAGAUCGGCGAUCCAUACAUGAGGAUCACCCAUGUAGAAGGCACUCUAC [Mat - Exclusion 2 - Eli Mod - D7] (Eterna round: R97, puzzle: Exclusion 2)
Input ligand: FMN 200 uM
  apparent KD of MS2 coat protein: 218 nM
Input ligand: none
  apparent KD of MS2 coat protein: 83.5 nM

## GUAGAGUGAGGAUAUACGAGAUCGAAAGAUCAACGAUCCAAACAUGAGGAUCACCCAUGUAGAAGGCACUCUAC [Eli x2 4.008] (Eterna round: R97, puzzle: Exclusion 2)
Input ligand: FMN 200 uM
  apparent KD of MS2 coat protein: 270 nM
Input ligand: none
  apparent KD of MS2 coat protein: 27.1 nM

## GUAUACGAUGAGGAUAUAUGAUAUCAAAGCAUCAUAGAAGGCAUCACAUGAGGAUCACCCAUGUGAUCUUCUUG [Mat - Exclusion 6 - JL Mod - D33] (Eterna round: R97, puzzle: Exclusion 6)
Input ligand: FMN 200 uM
  apparent KD of MS2 coat protein: 141 nM
Input ligand: none
  apparent KD of MS2 coat protein: 31.3 nM

## GUAUCGUGAGGAUAUCAUGAUUGACUUAAUUUAUGUCAGCGUGAGAAGGCACAUGAGGAUCACCCAUGUGAUUA [Ex4 - 3 - 6] (puzzle: Exclusion 4)
[2]
  apparent KD of MS2 coat protein: 20.5 nM

## GUCACAUGGACAUAGGAUCACAUGAGGAUCACCCAUGUGACUAACAAGCUUUUUGCUCGUCUUAUGUCUAUGUGAAA [Stov1/16-A1] (Eterna round: R97, puzzle: Sensor, turn-off variant 1)
Input ligand: FMN 200 uM
  apparent KD of MS2 coat protein: 12.8 nM
Input ligand: none
  apparent KD of MS2 coat protein: 12 nM

## GUCAGACGAGGAUAUGAUCAAUAAUACAUGAGGAUCACCCAUGUAAUACUGAUCCAUGGAUCAGAAGGCGUCUGAC [E5/5-A4] (Eterna round: R97, puzzle: Exclusion 5)
Input ligand: FMN 200 uM
  apparent KD of MS2 coat protein: 23.4 nM
Input ligand: none
  apparent KD of MS2 coat protein: 15.4 nM

## GUCAGCUCGUCAGGAUAUACAUCACUGCUUCGGCAGUGUAUUAAGAUCACAUGAGGAUCACCCAUGUAGAAGGGACGAGCUGAU [ENG2/2-B2] (Eterna round: R96, puzzle: Exclusion NG 2)
Input ligand: FMN 200 uM
  apparent KD of MS2 coat protein: 322 nM
[1]
  apparent KD of MS2 coat protein: 18.4 nM
Input ligand: none
  apparent KD of MS2 coat protein: 25.8 nM

## GUCAGCUCGUCAGGAUAUACAUGAGGAUCACCCAUGUGGUCAAUAGCAGCUUCGGCUGCAAUAAUGUAGAAGGGACGAGCUGAC [ENG2/8-E] (Eterna round: R96, puzzle: Exclusion NG 2)
Input ligand: FMN 200 uM
  apparent KD of MS2 coat protein: 115 nM
[1]
  apparent KD of MS2 coat protein: 301 nM
Input ligand: none
  apparent KD of MS2 coat protein: 756 nM

## GUCAGCUCGUGAGGAUAUACAUGAGGAUCACCCAUGUGGUCAUUAGCAGCUUCGGCUGCAUUAAUGUAGAAGGCACGAGCUGAC [ENG2/8-A1] (Eterna round: R96, puzzle: Exclusion NG 2)
Input ligand: FMN 200 uM
  apparent KD of MS2 coat protein: 635 nM
[1]
  apparent KD of MS2 coat protein: 690 nM
Input ligand: none
  apparent KD of MS2 coat protein: 1140 nM

## GUCAUCAAACAUGGGUGUAACAUGAGGAUCACCCAUGUUAUCAAGUUUUUUGCUCGUCUUAUAAUAAGUUUGAUGAC [Antenna 13 - Jieux - Sensor, turn-off variant 1] (Eterna round: R97, puzzle: Sensor, turn-off variant 1)
Input ligand: FMN 200 uM
  apparent KD of MS2 coat protein: 87.5 nM
Input ligand: none
  apparent KD of MS2 coat protein: 97.6 nM
